# B1: CKβ8-1(25-116): novel NH2-terminal truncated form of CKβ8-1, SEQ ID NO: 16, human recombinant chemokine (protein, listed as Homo sapiens)
# chain: MLWRRKIGPQMTLSHAAGFHATSADCCISYTPRSIPCSLLESYFETNSECSKPGVIFLTKKGRRFCANPSDKQVQVCMRMLKLDTRIKTRKN
# Test system: pariental L1.2 cells
# Assay: Migration of parental L1.2 cells
# Type: cell-based, murine
# Method: Migration assays were performed on monocytes and neutrophils. Human monocytes and neutrophils (prepared as in Exampe 2) were harvested and resuspended in chemotaxis medium (CM). The CM consisted of Hank's buffered salt solution (Gibco, Mass.) containing CaCl2 (1 mM) and MgSO4 (1 mM) with added 0.1% BSA (Sigma, St. Louis, Mo.). The assays were performed in 96-well ChemoTx® microplates (Neuroprobe, Mass.). Leukotactin, MlP-1α and chemokines (CKβ8(1-99), CKβ8(25-99), CKβ8-1(1-116) or CKβ8-1(25-116), prepared as in Example 1) were added to the lower wells (final volume 29 μL), and 20 μL of cell suspension (5×10^6 cells/mL for monocytes; 2.5×10^6 cells/mL for neutrophils) added to the polycarbonate filters (5 μm pore size for monocytes; 3 μm pore size for neutrophils). After incubation for 90 min (37° C., 100% humidity, 5% CO2), cells were removed from the upper surface of the filter by scraping. Cells that migrated into the lower chamber were quantified using the Quant cell proliferation assay kit (Molecular Probes, Oreg.).
# The ability of CKβ8-1 (25-116) to elicit the migration of the FPRL1 expressing cells was examined. Test conditions were as in Example 5.
molecule,measurement,value
B1,migration of parental L1.2 cells,did not migrate
